# Experimental data published in paper PMC2756588.
# B1: unnamed (peptide)
# chain: PVLPPPRSPNRPTLS
# B2: unnamed (peptide)
# chain: NSVPIMPTLPPRPYI
# B3: unnamed (peptide)
# chain: LYKRKPILLPDPKPL
# B4: unnamed (peptide)
# chain: PSRRAPLQLPQLVNK
# Biological target: GST
# Test: SPOT array
# Conditions: median of control spots 978
row,Binder,SPOT intensity
1,B1,1
2,B2,1
3,B3,2
4,B4,1

# Biological target: T1, Bud14, P27637
# T1 sequence (P27637 247-328, looked up): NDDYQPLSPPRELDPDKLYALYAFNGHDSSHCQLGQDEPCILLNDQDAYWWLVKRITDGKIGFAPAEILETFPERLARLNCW
# Test: SPOT array
# Conditions: median of control spots 956
row,Binder,SPOT intensity
1,B1,0
2,B2,0
3,B3,1
4,B4,0

# Biological target: T2, Pin3, Q06449
# T2 sequence (Q06449 53-122, looked up): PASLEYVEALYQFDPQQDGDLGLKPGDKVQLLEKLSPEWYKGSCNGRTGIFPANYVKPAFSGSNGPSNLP
# Test: SPOT array
# Conditions: median of control spots 2171
row,Binder,SPOT intensity
1,B1,7
2,B2,28
3,B3,7
4,B4,5

# Biological target: T3, Bbc1, P47068
# T3 sequence (P47068 1-78, looked up): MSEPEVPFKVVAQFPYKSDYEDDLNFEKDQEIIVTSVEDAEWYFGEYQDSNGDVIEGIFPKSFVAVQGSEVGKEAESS
# Test: SPOT array
# Conditions: median of control spots 796
row,Binder,SPOT intensity
1,B1,151
2,B2,109
3,B3,2
4,B4,12

# Biological target: T4, Boi1, P38041
# T4 sequence (P38041 1-86, looked up): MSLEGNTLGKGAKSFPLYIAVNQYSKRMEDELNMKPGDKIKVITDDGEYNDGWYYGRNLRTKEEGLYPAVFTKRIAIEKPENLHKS
# Test: SPOT array
# Conditions: median of control spots 1162
row,Binder,SPOT intensity
1,B1,849
2,B2,0
3,B3,0
4,B4,0

# Biological target: Rvs167, P39743
# Sequence (P39743 419-482): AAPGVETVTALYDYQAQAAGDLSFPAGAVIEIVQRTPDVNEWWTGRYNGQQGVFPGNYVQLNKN
# Test: SPOT array
# Conditions: median of control spots 2707
row,Binder,SPOT intensity
1,B1,6
2,B2,157
3,B3,0
4,B4,0

# Biological target: T5, Nbp2, Q12163
# T5 sequence (Q12163 103-180, looked up): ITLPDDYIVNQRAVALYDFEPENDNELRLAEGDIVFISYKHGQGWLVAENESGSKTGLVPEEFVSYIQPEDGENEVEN
# Test: SPOT array
# Conditions: median of control spots 357
row,Binder,SPOT intensity
1,B1,0
2,B2,0
3,B3,1
4,B4,0

# Biological target: T6, Sla1-3, P32790
# T6 sequence (P32790 344-424, looked up): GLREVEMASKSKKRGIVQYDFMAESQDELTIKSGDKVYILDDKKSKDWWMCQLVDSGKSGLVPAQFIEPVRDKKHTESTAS
# Test: SPOT array
# Conditions: median of control spots 5475
row,Binder,SPOT intensity
1,B1,6
2,B2,0
3,B3,0
4,B4,0

# Biological target: T7, Lsb1, P53281
# T7 sequence (P53281 45-122, looked up): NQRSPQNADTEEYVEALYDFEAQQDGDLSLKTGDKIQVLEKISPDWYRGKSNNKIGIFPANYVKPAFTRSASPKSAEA
# Test: SPOT array
# Conditions: median of control spots 388
row,Binder,SPOT intensity
1,B1,39
2,B2,176
3,B3,1210
4,B4,313

# Biological target: T8, Myo5, Q04439
# T8 sequence (Q04439 1072-1160, looked up): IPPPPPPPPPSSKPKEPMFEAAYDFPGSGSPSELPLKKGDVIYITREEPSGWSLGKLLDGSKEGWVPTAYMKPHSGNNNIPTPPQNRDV
# Test: SPOT array
# Conditions: median of control spots 471
row,Binder,SPOT intensity
1,B1,6
2,B2,25
3,B3,1
4,B4,0

# Biological target: T9, Sla1-2, P32790
# T9 sequence (P32790 60-140, looked up): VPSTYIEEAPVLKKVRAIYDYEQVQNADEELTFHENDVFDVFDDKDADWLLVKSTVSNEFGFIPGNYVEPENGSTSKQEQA
# Test: SPOT array
# Conditions: median of control spots 712
row,Binder,SPOT intensity
1,B1,442
2,B2,0
3,B3,0
4,B4,0

# Biological target: T10, Boi2, P39969
# T10 sequence (P39969 32-116, looked up): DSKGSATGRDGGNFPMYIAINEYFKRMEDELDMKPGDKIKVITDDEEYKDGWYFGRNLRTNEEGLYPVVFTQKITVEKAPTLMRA
# Test: SPOT array
# Conditions: median of control spots 1161
row,Binder,SPOT intensity
1,B1,1280
2,B2,0
3,B3,0
4,B4,0

# Biological target: Sho1, P40073
# Sequence (P40073 287-367): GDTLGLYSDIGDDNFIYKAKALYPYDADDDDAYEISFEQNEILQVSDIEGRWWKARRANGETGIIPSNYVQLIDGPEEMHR
# Test: SPOT array
# Conditions: median of control spots 1148
row,Binder,SPOT intensity
1,B1,0
2,B2,0
3,B3,15
4,B4,17

# Biological target: T11, Lsb3, P43603
# T11 sequence (P43603 385-451, looked up): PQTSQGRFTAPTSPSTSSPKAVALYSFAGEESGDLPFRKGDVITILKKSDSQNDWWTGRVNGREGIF
# Test: SPOT array
# Conditions: median of control spots 406
row,Binder,SPOT intensity
1,B1,102
2,B2,242
3,B3,0
4,B4,0

# Biological target: T12, Hof1, Q05080
# T12 sequence (Q05080 590-669, looked up): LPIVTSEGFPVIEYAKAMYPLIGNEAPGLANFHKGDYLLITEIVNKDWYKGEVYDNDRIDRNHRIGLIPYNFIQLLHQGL
# Test: SPOT array
# Conditions: median of control spots 4086
row,Binder,SPOT intensity
1,B1,9
2,B2,2750
3,B3,0
4,B4,0

# Biological target: T13, Cyk3, Q07533
# T13 sequence (Q07533 1-83, looked up): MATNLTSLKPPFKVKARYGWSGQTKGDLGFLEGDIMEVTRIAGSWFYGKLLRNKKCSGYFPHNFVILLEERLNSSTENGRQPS
# Test: SPOT array
# Conditions: median of control spots 1451
row,Binder,SPOT intensity
1,B1,0
2,B2,2
3,B3,0
4,B4,0

# Biological target: T14, Pex13, P80667
# T14 sequence (P80667 295-386, looked up): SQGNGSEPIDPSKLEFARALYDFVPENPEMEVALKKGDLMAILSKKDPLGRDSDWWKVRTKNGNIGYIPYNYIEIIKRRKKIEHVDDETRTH
# Test: SPOT array
# Conditions: median of control spots 1341
row,Binder,SPOT intensity
1,B1,86
2,B2,172
3,B3,1
4,B4,1

# Biological target: T15, Fus1, P11710
# T15 sequence (P11710 432-512, looked up): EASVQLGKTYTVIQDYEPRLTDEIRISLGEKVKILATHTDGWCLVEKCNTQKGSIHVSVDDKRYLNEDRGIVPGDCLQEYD
# Test: SPOT array
# Conditions: median of control spots 1200
row,Binder,SPOT intensity
1,B1,0
2,B2,0
3,B3,0
4,B4,0

# Biological target: Myo3, P36006
# Test: SPOT array
# Conditions: median of control spots 468
row,Binder,SPOT intensity
1,B1,22
2,B2,26
3,B3,0
4,B4,0

# Biological target: T16, Bzz1-2, P38822
# T16 sequence (P38822 568-633, looked up): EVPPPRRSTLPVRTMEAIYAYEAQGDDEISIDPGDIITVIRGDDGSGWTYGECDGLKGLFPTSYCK
# Test: SPOT array
# Conditions: median of control spots 4538
row,Binder,SPOT intensity
1,B1,9
2,B2,0
3,B3,0
4,B4,0

# Biological target: T17, Hse1, P38753
# T17 sequence (P38753 208-285, looked up): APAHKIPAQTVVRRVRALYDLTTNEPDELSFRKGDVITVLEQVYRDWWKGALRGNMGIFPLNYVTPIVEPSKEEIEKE
# Test: SPOT array
# Conditions: median of control spots 1727
row,Binder,SPOT intensity
1,B1,0
2,B2,368
3,B3,2
4,B4,0

# Biological target: T18, Lsb4, P32793
# T18 sequence (P32793 402-468, looked up): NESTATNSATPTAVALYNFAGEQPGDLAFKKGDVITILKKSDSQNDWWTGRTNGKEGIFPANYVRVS
# Test: SPOT array
# Conditions: median of control spots 397
row,Binder,SPOT intensity
1,B1,325
2,B2,513
3,B3,0
4,B4,2

# Biological target: T19, Bzz1-1, P38822
# T19 sequence (P38822 478-572, looked up): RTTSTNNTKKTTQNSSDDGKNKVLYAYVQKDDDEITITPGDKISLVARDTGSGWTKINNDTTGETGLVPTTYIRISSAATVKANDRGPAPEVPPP
# Test: SPOT array
# Conditions: median of control spots 4446
row,Binder,SPOT intensity
1,B1,8
2,B2,0
3,B3,0
4,B4,0

# Biological target: T20, Cdc25, P04821
# T20 sequence (P04821 50-136, looked up): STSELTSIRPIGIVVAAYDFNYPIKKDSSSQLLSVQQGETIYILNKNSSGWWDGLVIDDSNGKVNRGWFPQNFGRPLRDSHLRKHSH
# Test: SPOT array
# Conditions: median of control spots 969
row,Binder,SPOT intensity
1,B1,0
2,B2,0
3,B3,0
4,B4,0

# Biological target: T21, Abp1, P15891
# T21 sequence (P15891 535-592, looked up): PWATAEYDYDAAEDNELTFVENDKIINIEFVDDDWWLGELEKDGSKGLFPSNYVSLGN
# Test: SPOT array
# Conditions: median of control spots 935
row,Binder,SPOT intensity
1,B1,133
2,B2,14
3,B3,43
4,B4,45

# Biological target: Bem1-1, P29366
# Sequence (P29366 55-141): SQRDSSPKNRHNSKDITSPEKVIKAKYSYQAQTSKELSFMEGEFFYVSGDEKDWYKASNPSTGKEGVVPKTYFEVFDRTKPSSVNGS
# Test: SPOT array
# Conditions: median of control spots 4282
row,Binder,SPOT intensity
1,B1,1
2,B2,0
3,B3,0
4,B4,2

# Biological target: Bem1-2, P29366
# Sequence (P29366 139-227): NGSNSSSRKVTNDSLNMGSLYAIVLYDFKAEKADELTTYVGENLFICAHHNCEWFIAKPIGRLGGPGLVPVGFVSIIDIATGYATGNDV
# Test: SPOT array
# Conditions: median of control spots 4347
row,Binder,SPOT intensity
1,B1,6
2,B2,2
3,B3,0
4,B4,0
